Data on three substances can be found in patent publication US20220211826A1.

The target in assay [1] is H-2Kb/SIINFEKL pMHC complex on primary hepatocytes (mouse). In words: cell-based or functional assay.
In assay [2] the target is PD-L1 expressed by hepatocytes of C57BL/6 mice (mouse) (UniProt Q9EP73). Put plainly: cell-based or functional assay.
UniProt Q9EP73, sequence (Q9EP73 19-290): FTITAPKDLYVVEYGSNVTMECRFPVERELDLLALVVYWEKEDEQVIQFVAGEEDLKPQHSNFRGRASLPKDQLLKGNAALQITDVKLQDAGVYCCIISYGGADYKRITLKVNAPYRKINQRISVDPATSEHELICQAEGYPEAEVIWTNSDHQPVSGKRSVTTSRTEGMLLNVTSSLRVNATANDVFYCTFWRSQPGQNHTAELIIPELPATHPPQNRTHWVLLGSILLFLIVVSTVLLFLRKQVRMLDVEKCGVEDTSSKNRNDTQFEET

In assay [1], “T cell receptor of OT-I cells (transgenic CD8+ T cells specific for H-2Kb/SIINFEKL) (TCR)” registered a CD69+ OT-I cells after 24 hr co-culture with hepatocytes incubated with pGal-OVA alone of 17%; a CD69+ OT-I cells after 24 hr co-culture with hepatocytes treated with pGal-OVA and MG132 of 3.98%; a CD69+ OT-I cells after 24 hr co-culture with hepatocytes treated with pGal-OVA and chloroquine of 7.38%.

In assay [2], “rat IgG isotype control Ab (Abcam) (antibody)” had a frequency of CD45.1+ OT-I cells among viable CD3+CD8+ lymphocytes in dLNs, mice given hepatocytes treated with pGal-OVA and isotype control antibody of 0.2%; a frequency of dLN IFN-γ+ OT-I cells, pGal-OVA and isotype control antibody-treated hepatocytes of 29.2%; a frequency of dLN IL-2+ OT-I cells, pGal-OVA and isotype control antibody-treated hepatocytes of 4.21%.

On to “αPD-L1 blocking Ab (BioxCell, clone 10F.9G2) (antibody)”, for which, in assay [2], the frequency of CD45.1+ OT-I cells among viable CD3+CD8+ lymphocytes in dLNs, mice given pGal-OVA- and αPD-L1-treated hepatocytes was 0.45%; the frequency of IFN-γ+ OT-I cells after OVA/LPS challenge, αPD-L1-treated hepatocytes came out at 47.1%; the frequency of IL-2+ OT-I cells after OVA/LPS challenge, αPD-L1-treated hepatocytes is 7.53%.
